Experimental findings from US20250333501A1 are described below.

For experiment [1], the target named is human CLDN6 fused to GFP, expressed on engineered HEK293T cells (HEK293T-CLDN6-mGFP) (human) (UniProt P56747). Briefly: FACS, 0.3 µg Ab, 293T clone with human CLDN6. (A flow cytometer gives signals particle by particle.)
Experiment [2] concerns the target CLDN6 endogenously expressed by human cancer cell lines (ARK2, OVCA429) (human) (UniProt P56747). Briefly: FACS, 1.5 µg Ab, ARK2 cells.
Experiment [3] addresses mouse CLDN6 fused to GFP, expressed on engineered HEK293T cells (mouse) (UniProt Q9Z262). The experiment can be described thus: FACS, 293T clone with mouse CLDN6, dose not given.
Experiment [4] concerns the target human CLDN6 fused to GFP, expressed on engineered HEK293T cells (HEK293T-CLDN6-mGFP) (human) (UniProt P56747). Briefly: FACS, 1.5 µg Ab, 293T clone with human CLDN6.
Experiment [5] concerns the target CLDN6 endogenously expressed by human cancer cell lines (ARK2, OVCA429) (human) (UniProt P56747). The experiment can be described thus: FACS, 0.3 µg Ab, ARK2 cells.
The target is the same in experiment [6]. Briefly: FACS, 1.5 µg Ab, OVCA429 cells.

Chain of CLDN6 endogenously expressed by human cancer cell lines (ARK2, OVCA429) (human) (P56747 whole entry, the tested form may be a part): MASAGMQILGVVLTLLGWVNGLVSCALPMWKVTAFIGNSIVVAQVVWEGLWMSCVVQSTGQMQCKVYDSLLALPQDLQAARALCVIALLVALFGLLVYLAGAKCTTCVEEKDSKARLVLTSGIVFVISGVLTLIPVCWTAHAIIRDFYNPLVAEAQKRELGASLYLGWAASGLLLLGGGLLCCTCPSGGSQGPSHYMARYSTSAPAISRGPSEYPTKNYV
Chain of human CLDN6 fused to GFP, expressed on engineered HEK293T cells (HEK293T-CLDN6-mGFP) (human) (P56747 whole entry, change not shown, the tested form may be a part): as the sequence (P56747 whole entry, the tested form may be a part) above
Chain of mouse CLDN6 fused to GFP, expressed on engineered HEK293T cells (mouse) (Q9Z262 whole entry, change not shown, the tested form may be a part): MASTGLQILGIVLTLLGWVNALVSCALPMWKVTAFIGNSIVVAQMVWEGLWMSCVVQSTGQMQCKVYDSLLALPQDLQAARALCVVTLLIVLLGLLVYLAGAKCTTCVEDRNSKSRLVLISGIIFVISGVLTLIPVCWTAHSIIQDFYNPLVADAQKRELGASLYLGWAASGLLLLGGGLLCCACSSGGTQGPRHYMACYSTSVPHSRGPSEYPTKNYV

On to 2nd Ab only (antibody), for which the FACS fluorescence was 768 in experiment [1]; 1350 in experiment [2]; 1060 in experiment [3]; 768 in experiment [4]; 1350 in experiment [5]; 886 in experiment [6].
